The source of these data is the domain aggregation screens of Martell et al. (2025).

This series in a line: soluble fraction after stress (log2 fold change); higher = more stays soluble; pooled small domains, quantitative proteomics. To be noted: stress: 50 degC. Put shortly: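 Pooled custom libraries of small protein domains were measured in a high-throughput format, with quantitative proteomics as the read-out. Each library was stressed at 50°C. Aggregation propensity is given as the base-two logarithm of the fold change in how much of each protein stays soluble after the stress. Higher values mean a larger share of the protein remains in solution.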
With “HMPAFGALTLRQRDLVELIAQGLDNSQIAARLGLAEKTVRNHITMIFNKLEMENRSQVIVRARESGFGAVR”, the “soluble fraction (log2)” value is -1.53.

As for “HMDYEVPEELEEKFSENPQFKEAFDNLTPGRQHQYIYHISQAKRSQTRINRIEKYYEHILNGKGMQD”, the “soluble fraction (log2)” value was found to be 0.0659. In the case of “HMESILDDFPGLGEKRKKALLEHFGSISKIKAATVGQLREVDGIGFETAAALREFLDANFPA” it was 0.158; in that of “HMQEAGLITQRIREMREKENWTQEYMAEQLGMSENGYAKIERGESNLSLKRLQQIADIFEVESAELLK”, 0.0493; in that of “HMGELGPGSRGQAVRALQERLMALGFPLARFGADGIFGRETTGALRAFQHVAGLSPTGLGDHETLKWLGII”, -0.935. As for “HMSYKDIKEASDTGTYRDEENNIDVKWQKLFNGHNEYFDIEAYRDGERVEINNQQADRYIYLIKQEMD”, the figure is 0.025; as for “HMNIYFNIEDAVANAVVENGKMSAAIYEKNVDTGEVAKLAEVSMPVMGGNINITKTLLTKALISQLP”, -0.384. “HMIQTKKVTFTVEPTVNFEKINISGIEFKINSGSSITAIYEKNSHNFDEVLDFLKQKGVKILDIVTED”: the “soluble fraction (log2)” value is -0.118. In the case of “HMSPAPVSVDHLAFPTRDLEATDHFYSKVVGATLVHAESGYSPSWKSDYLLITYALPDGTRLSFFDWP” it was 0.0261; in that of “HMSESGTFRAEAADAGRRLDVALAERLRLSRAAAQRLIAAGLVLVEGSPARKRQILHAGETVAWRAAPP”, -0.127. As for “HMKSIEVPNLINMTLRKAKIELIDNEFNLDTVIYEYNPNIREGRVSLQIPESGTILKSGSNISIHISKGIP”, the figure is -1.53; as for “HMYEGNEFSSTGMFREDILAITAVHPMREDAVTELLARSNESEETLEMMIDEELLRRVAYGNHNYYMRRFR”, -0.428; as for “HMVGVDMTVKEEVGKEGVTFTDLRPAGKVEIGNDIYDAVSNTGAFIQKGEKVKIIKYQAGQVYVEKLV”, -0.121. Take “HMAKVDIPHEMVDQRIDEIVEEIKMNLESQNMSLDDYLKRMNQTEAQLRANYEATAAEQVRQGLV”: the “soluble fraction (log2)” value was determined as 0.314.

For the sequence “HMGKVNTRNRNEGKFYKNGKKKPANWEYRFEAAPVNGKRQQISDAGYPTEKAAYEAGIAAYEKYNSAGSVN”, the “soluble fraction (log2)” value was 0.0482. For “HMKRITGHLTEKNKKWYAVINLYDTDGKRKEKWQGLNLDANKGNKREAEHRLRQILDQYNTD”, the “soluble fraction (log2)” value is -0.0127. As for “HMNIKITKSKNSEHYSIIYNTKINGKRTSKIYENIGNFEKLKLRAGEQEPIEWLKNYVSELNKKQKEDT”, the figure is 0.109; as for “HMRTYEHALTEEEKELILIVSNLSEYKSLPPSQIVPKLADLGIYIASESSFYRVLRAHNQLHHRGR”, -2.56; as for “HMTPTNILIVEDEKEIRRFVRTALESEGLRVFESETLQRGLIEAGTRKPDLIILDLGLPDGDGLSYIRDLR”, -0.123. As for “HMENKVLVITEEEKGKRLDVYLAAALEVSRSYAQQLIQGEDVVVNDKQVKANYRLSEGDVVQVQLD”, the figure is at least 0.62.

For the sequence “HMSPREDQQSRKQHILEAAAVLFAERGYYKTTTADVARAVGVTQPYVFHFFKSKEELYLAVL”, the “soluble fraction (log2)” value was -0.0115.

“HMEPEDVIAMERYLASGAIKGIGVTLAGRIIKKFQKETFHIIEEEPERLSEVKGISEKLAREIYQQFTQK”: the “soluble fraction (log2)” value was -0.873. In the case of “HMEYQTVEKSEAEQIIQELEKAERLALKVYSKNDIITGISVSDGKSYYFSAELVPMLKNIIENPEIKIL” it was -0.623. In the case of “HMSRLQDAELQAQIDKMAGAMQLRDIPVYVQDIPTINGLAAPDGRVFITQGFIDKYKLGEVSAGEIASVI” it was 0.36; in that of “HMANLLNLREIPVANIRPELTMFLIPGENITQAFQTIRDQVVFTNKRLIVANVQGLTGKKVSYTSYPY”, -0.374; in that of “HMGRYDWIEQIDDPVLAERLKHLTEDDLELLTRYVFEDATQKELASQYGIGQQSVSKRLKKLKSFLTK”, 0.00228. With “HMKTERTVRVQDQHLHYTLEEKPIKNVNLRIRPDGSVYVSAPFGTSRTLIDDFVASKSKQILAIQQAQSAM”, the “soluble fraction (log2)” value is -0.0134.

With “HMAKRTVPSVAEAIDNFRRQHRRMPSYAEMLPLLGVRSKSVVHFWINKLLENGLLEKDDKGYLTPGS”, the “soluble fraction (log2)” value is -0.00958. Regarding “HMGVSLKEIQENLSLIDDAAQKLASGQGTVDDAVGMGNAGKDIYDNIEGYVSSPKEFINGVLSSV”, the “soluble fraction (log2)” value is -0.104.

With “HMDIGTYTVTASALNIRQYPTASSAKTGSYPNGSIVTIYEYLTDGSWGRTDDGWISMNYVSRRY”, the “soluble fraction (log2)” value was -2.01. Turning to “HMKVTGITDDILQRLKQQKGYLMLSDKSSPDEIYAAFGVSKKVFKQAIGTLFKQRQIIIEEQGIRLAN”, the “soluble fraction (log2)” value was -0.39. Turning to “HMPLNRFLNLPHEDKERVLLIAKKQFSTHGYDAMSLNLLLKELDISKGQFYYWFEDKADLFFTVL”, the “soluble fraction (log2)” value was found to be 0.0032. Consider “HMPAASDALAGELAQIARLDIAKLLAGDLSEADWSRITSATVQLSERHPDASDELTALVERIDTAYSARAT”, for which the “soluble fraction (log2)” value came to 0.0455. In the case of “HMQYQIITENGKQYYLYTVQKSEGFYSIGKRFEITNDEIIKANPEAALGLKLGQVLKIPVYK” it was -0.331.
